Residue numbers refer to the chain shown, from its start.
Tests used:
[1] = molecular target: T1, human CD3 expressed on cells (Jurkat cells; human primary T cells) (human, UniProt P07766 23-207; P04234 22-171; P09693 23-182); assay: flow cytometry, 25 nM, human primary T cells
T1 construct: whole, on cells
Description: (§1) Purified antibodies were confirmed to bind CD3 expressed on cells using the CytoFLEX S or LX flow cytometers (Beckman Coulter). Antibodies were diluted to 25 nM in FACS buffer (PBS+2% FBS) and were incubated with CD3-expressing cells for 30 minutes at 4° C. […] The median fluorescence intensity of the binding signal for each antibody was normalized to the isotype control to obtain a fold over isotype value. An antibody with a fold over isotype (FOI) of ≥10 was considered to be positive for binding.

[2] = molecular target: T1, human CD3 expressed on cells (Jurkat …); assay: flow cytometry, 25 nM, Jurkat cells
Description: as §1

[3] = molecular target: T2, cynomolgus monkey CD3 expressed on cyno primary T cells (cynomolgus monkey, UniProt Q95LI5 22-198; Q95LI8 22-171; Q95LI7 23-181); assay: flow cytometry, cyno primary T cells
T2 construct: whole, on cells; CD3 complex on purified cynomolgus monkey CD3 pan T cells; also called cyno CD3
Outline: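 Flow cytometric binding was measured after cells were incubated with antibody (25 nM, PBS+2% FBS) at 4° C for 30 minutes. Signals were normalized to isotype to yield FOI, with ≥10 scored positive.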

T2 sequence (Q95LI5 22-198, chain 1 of 3): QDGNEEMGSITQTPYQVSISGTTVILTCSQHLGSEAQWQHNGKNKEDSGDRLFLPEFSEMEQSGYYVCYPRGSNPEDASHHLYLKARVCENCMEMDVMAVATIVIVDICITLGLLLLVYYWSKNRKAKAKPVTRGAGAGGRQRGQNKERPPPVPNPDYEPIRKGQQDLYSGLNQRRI
T2 sequence (Q95LI8 22-171, chain 2 of 3): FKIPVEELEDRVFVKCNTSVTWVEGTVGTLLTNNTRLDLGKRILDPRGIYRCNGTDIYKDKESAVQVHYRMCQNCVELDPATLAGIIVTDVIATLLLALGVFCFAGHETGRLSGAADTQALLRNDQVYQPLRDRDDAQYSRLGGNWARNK
T2 sequence (Q95LI7 23-181, chain 3 of 3): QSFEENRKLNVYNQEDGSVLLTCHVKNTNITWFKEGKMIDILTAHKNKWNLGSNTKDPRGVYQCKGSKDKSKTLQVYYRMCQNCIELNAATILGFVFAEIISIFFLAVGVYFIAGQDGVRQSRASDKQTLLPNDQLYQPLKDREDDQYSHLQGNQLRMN
T1 sequence (P07766 23-207, chain 1 of 3): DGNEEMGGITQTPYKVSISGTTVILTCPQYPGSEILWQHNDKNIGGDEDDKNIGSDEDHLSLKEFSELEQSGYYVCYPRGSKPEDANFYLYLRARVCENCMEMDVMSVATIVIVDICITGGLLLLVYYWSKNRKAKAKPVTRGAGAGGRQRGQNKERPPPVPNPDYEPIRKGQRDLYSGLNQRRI
T1 sequence (P04234 22-171, chain 2 of 3): as the sequence (Q95LI8 22-171, chain 2 of 3) above, with V5I, K15N, V20I, T32S, N33D, N34I, A64T, N74S, L83V, R141H counted along it
T1 sequence (P09693 23-182, chain 3 of 3): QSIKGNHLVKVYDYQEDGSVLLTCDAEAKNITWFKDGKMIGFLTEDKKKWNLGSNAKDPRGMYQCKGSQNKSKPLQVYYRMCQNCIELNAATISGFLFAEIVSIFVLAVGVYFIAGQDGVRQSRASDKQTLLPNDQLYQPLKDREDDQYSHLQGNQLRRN

B1: mAb 290 (antibody, V domains shown)
VH: EVQLVESGGGVVRPGGSLRLSCAASGFTFDDYGMSWVRQAPGKGLEWVSGISWNGGSTGYADSVKGRFTISRDNAKNSLYLQMNSLRAEDTALYHCARDGVPVVKRRYYYYYMDVWGKGTTVTVSS
VL: EIVLTQSPDFQSVTPKEKITITCRASQSIGSSLHWYQQKPDQSPKLLIKYASQSFSGVPSRFSGSGSGTDFTLTINSLEAEDAATYYCHQSASLPQTFGQGTKVEIK
notes: VH/VL only
- Binding (FOI) [1]: 99.8 FOI
- Binding (FOI) [2]: 135 FOI
- binding result [3]: no binding (tested: FOI <10 (FOI >=10 = positive); 25 nM)

B2: mAb 174 (antibody, V domains shown)
VH: EVQLVESGGGLVQPGGSLRLSCAASGFTFSSNWMSWVRQAPGKGLEWVANIKQDGSEKYSVDSVKGRFTISRDNAKNSLYLQMNSLRAEDTAVYYCARDRSRNYYWYFDLWGRGTLVTVSS
VL: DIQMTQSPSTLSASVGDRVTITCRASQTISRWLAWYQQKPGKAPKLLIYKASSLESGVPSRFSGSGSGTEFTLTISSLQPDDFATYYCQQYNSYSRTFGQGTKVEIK
notes: VH/VL only
- Binding (FOI) [1]: 231 FOI
- Binding (FOI) [2]: 130 FOI
- binding result [3]: no binding (tested: FOI <10 (FOI >=10 = positive); 25 nM)

B3: mAb 175 (antibody, V domains shown)
VH: B2 VH with Q3E, S60Y, Q82K, R100C, R102S, Y104W
VL: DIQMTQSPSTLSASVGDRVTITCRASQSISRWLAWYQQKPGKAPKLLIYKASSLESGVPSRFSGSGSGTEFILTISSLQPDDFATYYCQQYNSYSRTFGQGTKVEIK
notes: VH/VL only
- Binding (FOI) [1]: 118 FOI
- Binding (FOI) [2]: 96.6 FOI
- binding result [3]: no binding (tested: FOI <10 (FOI >=10 = positive); 25 nM)

B4: mAb 170 (antibody, V domains shown)
VH: EVQLVESGGGLVRPGRSLRLSCAASGFTFDDYTMHWVRQAPGKGLEWVSGISWNSGSIGYADSVKGRFTISRDNAKNSLYLQMNSLRAEDTALYYCSKDSSGYGYYLNYSLDVWGKGTTVTVSS
VL: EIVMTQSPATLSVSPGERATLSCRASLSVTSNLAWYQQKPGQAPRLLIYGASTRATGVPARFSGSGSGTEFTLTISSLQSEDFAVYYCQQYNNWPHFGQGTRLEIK
notes: VH/VL only
- Binding (FOI) [1]: 120 FOI
- Binding (FOI) [2]: 117 FOI
- binding result [3]: no binding (tested: FOI <10 (FOI >=10 = positive); 25 nM)

B5: mAb 188 (antibody, V domains shown)
VH: QVQLVESGGGVVQPGRSLRLSCAASGFTFSGYGMHWVRQAPGKGLEWVAIIYYNGKKEYYADSVKGRFTISRDNSKNTLYLQMNSLRAEDTAVYYCTRGEGYNWFDPWGQGTLVTVSS
VL: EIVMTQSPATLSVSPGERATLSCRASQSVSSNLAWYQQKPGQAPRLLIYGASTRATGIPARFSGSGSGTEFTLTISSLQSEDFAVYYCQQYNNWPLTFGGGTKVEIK
notes: VH/VL only
- Binding (FOI) [1]: 216 FOI
- Binding (FOI) [2]: 171 FOI
- binding result [3]: no binding (tested: FOI <10 (FOI >=10 = positive); 25 nM)

B6: mAb 192 (antibody, V domains shown)
VH: B5 VH with T112I
VL: EIVMTQSPATLSVSPGERATLSCRASQSVSSNLAWYQQKPGQAPRLLIYGASTRATGIPARFSGSGSGTEFTLTISSLQSEDFAVYYCKQYKNWPLTFGGGTKVEIK
notes: VH/VL only
- Binding (FOI) [1]: 223 FOI
- Binding (FOI) [2]: 176 FOI
- binding result [3]: no binding (tested: FOI <10 (FOI >=10 = positive); 25 nM)

B7: mAb 189 (antibody, V domains shown)
VH: B5 VH with N54D, K57N, E58K, N77S, R87G, E89D, E100K
VL: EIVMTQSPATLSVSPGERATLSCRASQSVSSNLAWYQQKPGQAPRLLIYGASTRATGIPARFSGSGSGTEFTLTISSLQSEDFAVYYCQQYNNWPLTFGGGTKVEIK
notes: VH/VL only
- Binding (FOI) [1]: 184 FOI
- Binding (FOI) [2]: 165 FOI
- binding result [3]: no binding (tested: FOI <10 (FOI >=10 = positive); 25 nM)

B8: mAb 197 (antibody, V domains shown)
VH: B5 VH with R16G, Y52W, K56R, E58T, D62E, Y80S, A88V, R98T, E100Q
VL: B6 VL with K89Q, Y91F, K92N, N93A, V104M
notes: VH/VL only
- Binding (FOI) [1]: 260 FOI
- Binding (FOI) [2]: 183 FOI
- binding result [3]: no binding (tested: FOI <10 (FOI >=10 = positive); 25 nM)

B9: mAb 191 (antibody, V domains shown)
VH: B5 VH
VL: B6 VL with E70D, D82H, K89Q, K92T
notes: VH/VL only
- Binding (FOI) [1]: 212 FOI
- Binding (FOI) [2]: 170 FOI
- binding result [3]: no binding (tested: FOI <10 (FOI >=10 = positive); 25 nM)

B10: mAb 198 (antibody, V domains shown)
VH: B5 VH with R16G, Y52W, K56R, E58T, D62E, Y80S, A88I, R98T, E100Q
VL: B6 VL with K89Q, Y91F, K92N, N93A, V104M
notes: VH/VL only
- Binding (FOI) [1]: 231 FOI
- Binding (FOI) [2]: 182 FOI
- binding result [3]: no binding (tested: FOI <10 (FOI >=10 = positive); 25 nM)

From patent US20230295310A1 (ABCELLERA BIOLOGICS, published 2023)
